The values that follow come from doi:10.1101/2025.09.05.674518 (bioRxiv, 2025).

Where a chain is given by its changes, count along the chain named.

In assay [1] the target is wild-type human MXA (Myxovirus resistance protein A), MAPPIT bait or prey (Homo sapiens, UniProt P20591).
For the next assay, the target named is T1, M527D MXA (Homo sapiens, UniProt P20591).
T1 chain: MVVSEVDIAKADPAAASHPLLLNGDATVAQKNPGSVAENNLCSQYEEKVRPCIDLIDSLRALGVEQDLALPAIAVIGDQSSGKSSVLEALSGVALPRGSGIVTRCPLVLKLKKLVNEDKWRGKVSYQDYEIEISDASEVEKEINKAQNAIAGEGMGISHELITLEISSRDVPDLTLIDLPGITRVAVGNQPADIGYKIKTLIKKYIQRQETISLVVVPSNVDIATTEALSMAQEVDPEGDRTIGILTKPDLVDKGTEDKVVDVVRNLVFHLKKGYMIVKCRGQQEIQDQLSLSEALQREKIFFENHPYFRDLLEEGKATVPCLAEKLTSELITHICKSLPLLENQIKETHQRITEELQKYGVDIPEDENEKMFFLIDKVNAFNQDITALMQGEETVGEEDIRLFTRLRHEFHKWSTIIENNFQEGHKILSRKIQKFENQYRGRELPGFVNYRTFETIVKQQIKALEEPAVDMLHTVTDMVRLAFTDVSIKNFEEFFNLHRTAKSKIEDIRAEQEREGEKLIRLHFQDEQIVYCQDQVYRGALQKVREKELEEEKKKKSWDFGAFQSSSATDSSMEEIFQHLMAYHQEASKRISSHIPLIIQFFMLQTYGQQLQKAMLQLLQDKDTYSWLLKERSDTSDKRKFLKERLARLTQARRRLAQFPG

In assay [2] the target is recombinant wild-type human MXA (Homo sapiens, UniProt P20591). Nature of the assay: ELISA. In general terms: In an ELISA, binding on a coated surface is turned into a signal by an enzyme label.

B1: VHH88 (VHH)
chain: QVQLQESGGGLVQAGDSLTLSCARSGRIFNSVPMGWFRQAPGKEREIVAAISGNGVNTYYADSVKGRFAISRDSAKNTYLQMSSLKPEDTAVYYCAARVTPWDTRYYLDDYQYWGQGTQVTVSS
With B1, the binding result (in assay [1]; with M527D MXA) was “binds” in each case.

B2: VHH97 (VHH)
chain: B1 chain with D16G, T19R, R24K, N30S, V56E, A69T, S74N, T104S, Q112H
In the case of B2, the binding result (in assay [1]; with M527D MXA) was “binds” in each case.

B3: VHH7, His6-tagged, purified from Pichia pastoris (VHH)
VHH: QVQLQESGGGLVQAGDSLRLSCANSGRTRSAMGWFRQAPGKEREFVAAITWSGYGTYYADSVKGRFTISRDNAKNALYLRMNSLKPDDTAVYYCAARRNQYYSYSSASADYDYWGQGTQVTVSS
As to B3, in assay [2], the binding result is recorded as “binds”.

B4: VHH93 (VHH)
chain: QVQLQESGGGLVQAGDSLRLSCVVSGRFLSGYAVGWFRQAPGNERDFVAAFTWIGGQTSYADSVKGRFTVSRDNAKNTLYLQMNNLKPEDTAVYYCAAKVAIVPPTTARGYDYWGQGTQVTVSS
For B4, the binding result (in assay [1]; with M527D MXA) was “binds” throughout.

B5: VHH5, His6-tagged, purified from Pichia pastoris (VHH)
VHH: QVQLQESGGGLVQAGDSLILSCAASGRTFSSSAMGWFRQAPGKEREFVAAITYSGISTEYADSVKGRFTISRDNPKSTLYLRMNSLKAEDTAVYYCAARRNGYYSRSHYSTDYEYWGRGTQVTVSS
Consider B5, for which the binding result in assay [2] is on record as “binds”.
